B1: OR4K15 (parent)
chain: GUUAACGGUCAUAGGCCAUGGAAACUAGGAGCACCAUUUCGCUGCCAGUGAAGAAAUGAACAAAGAAAAUCUGGGCCAGGCAGGCAUCAAAAGAAAUAGUCUUGCGCUCAACCAGAAAGUCUGUAAUCAUUUUAAGGGUA

Variants of: B1
Test: self-cleavage, relative activity (ratio to wild type); higher = more cleavage; in vitro, sequencing; the parent is a self-cleaving ribozyme

In order of falling self-cleavage:
1. U43G U100C  2.82
2. U43G A67U  2.63
3. U43G A140G  2.62
4. C42U A117G  2.46
5. U43A A55U  2.41
6. C42U A96G  2.35
7. C42U A94G  2.27
8. U43A A63G  2.21
9. G44A A51G  2.19
10. U43C A62U  2.19
11. U43A A117G  2.17
12. U43C A95G  2.15
13. U43A U133C  2.13
14. U43A A140G  2.11
15. U43G A69G  2.1
16. U43A G65A  2.07
17. U43C U120A  2.06
18. U43A A110U  2.05
19. U43C A134U  2.04
20. U43C A89G  2.04
21. U43C C121U  2.03
22. U43A G83A  1.97
23. U43G A54U  1.97
24. U43A A66G  1.96
25. U43G A67G  1.89
26. U43A A60U  1.88
27. C42G A95G  1.87
28. G44A G93C  1.87
29. U43A A56G  1.86
30. U43A U122C  1.85
31. U43A G53A  1.84
32. G44A A134G  1.84
33. G44A U57C  1.84
34. U43C A64U  1.82
35. G44A A68G  1.81
36. U43A A134G  1.81
37. U43C A63G  1.8
38. U43A U57A  1.79
39. U43C A94G  1.78
40. G44A U133C  1.78
41. U43C A94U  1.77
42. U43A A89G  1.77
43. U43C U100G  1.75
44. U43C A117G  1.75
45. U43C A68U  1.74
46. U43C A69U  1.74
47. U43A A68U  1.7
48. U43C A110U  1.68
49. U43C A98U  1.68
50. G44A A117G  1.66
51. U43C A64G  1.66
52. C42U A66G  1.64
53. U43A A66U  1.62
54. G44U A135G  1.6
55. U43A A52G  1.6
56. U43A A86G  1.6
57. U43C A92U  1.6
58. U43C C45U  1.6
59. U43C G83A  1.59
60. G44A A89U  1.59
61. U43C C88U  1.59
62. G44A U127C  1.58
63. U43C A62C  1.57
64. G44A A59G  1.56
65. U43C A52U  1.51
66. U43A A64G  1.49
67. U43C A52G  1.49
68. G44A A94G  1.48
69. G44A A125C  1.48
70. G44U A63G  1.46
71. C42U A51U  1.45
72. U43C A60G  1.43
73. C42U C128U  1.41
74. G44C A52G  1.4
75. U43C A86C  1.4
76. U43C A67G  1.39
77. U43C A51U  1.35
78. G44A U132A  1.35
79. U43C G48A  1.32
80. U43C A62G  1.29
81. U43C A91G  1.29
82. U43C U132C  1.27
83. C42U A62G  1.26
84. U43G A89G  1.26
85. U43A A118G  1.25
86. U43C A68G  1.21
87. U43G A129G  1.19
88. U43C C45A  1.19
89. U43C A140U  1.18
90. U43A A117U  1.18
91. U43C A117U  1.17
92. U43G U103A  1.15
93. G44A A89G  1.14
94. U43C U124C  1.13
95. U43A A47G  1.12
96. U43A U103C  1.1
97. U43C A129G  1.1
98. C42U A91G  1.09
99. U43C A96G  1.09
100. C42U U130C  1.09
101. U43A A98G  1.07
102. U43A G44A  1.06
103. U43C U103C  1.03
104. U43C A118G  1.02
105. U43A A78U  1.02
106. C42U U103A  1.01
107. U43A A94C  1.01
108. U43C A96C  1
109. U43C A90G  0.97
110. U43C A47U  0.96
111. U43G A116G  0.96
112. U43A A62G  0.93
113. U43G A126G  0.92
114. U43A U97C  0.92
115. U43C A63U  0.91
116. U43A U131C  0.91
117. U43A A118U  0.9
118. U43A U49A  0.87
119. U43A A114G  0.86
120. U43A A54G  0.83
121. U43A C128A  0.8
122. U43A A56C  0.8
123. C42U A118G  0.7
124. U43C A59G  0.68
125. U43C G83U  0.67
126. U43C U100A  0.67
127. U43A A129G  0.65
128. G44A U130C  0.64
129. U43C G58A  0.64
130. U43A A116G  0.55
131. U43A A91G  0.55
132. U43C A114G  0.55
133. U43G A90G  0.51
134. G44A A91G  0.42
135. U43C U103A  0.41
136. U43C U72A  0.4
137. U43A U70A  0.37
138. U43C C109A  0.36
139. U43A A55G  0.35
140. U43C U57C  0.31
141. U43C A78C  0.29
142. U43A U72C  0.27
143. U43G A114G  0.27
144. U43C A78G  0.26
145. U43C G99C  0.26
146. G44A A78G  0.24
147. U43A U72A  0.2
148. G44U A110G  0.18
149. U43C A82U  0.18
150. G44A G74A  0.17
151. U43A A78G  0.14
152. U43A A82G  0.13
153. U43A A82U  0.12
154. U43A C105U  0.1
155. U43G A114U  0.1
156. U43C A116C  0.07
157. U43C U72C  0.07
158. U43C G58U  0.07
159. U43C C113U  0.04
160. U43A A111C  0.03
161. U43A A111G  0.03
162. U43C C105A  0.02
163. U43A U108C  0.02
164. U43C U108G  0.02
165. C42G U108C  0.01
166. G44A A111G  0.01
167. G44A G65A  0

Reference: the RNAGym collection of RNA variant scans (doi:10.7554/elife.90254)
